{"source": "paper doi:10.1101/2022.10.03.510161", "key": {"[1]": {"target": "P74-26 TTP L229A variant (bacteriophage P74-26)", "test": "light scattering of tube assembly"}, "[2]": {"target": "P74-26 tail tube protein (TTP), gp93, in the tail tube of purified virions (bacteriophage P74-26)", "test": "cryo-EM structure"}, "[3]": {"target": "P74-26 tail tube protein (TTP), gp93, recombinant wild type (bacteriophage P74-26)", "test": "SEC-MALS"}, "[4]": {"target": "P74-26 tail tube protein (TTP), gp93, recombinant wild type (bacteriophage P74-26)", "test": "light scattering of tube assembly"}}}
{"substance": "P74-26 TTP L229A variant (natural protein)", "values": [{"measurement": "tube formation rate relative to WT", "setting": "[1]", "result": "10 % of the WT"}]}
{"substance": "P74-26 tail tube protein (TTP), gp93, in the tail tube of purified virions (natural protein)", "values": [{"measurement": "stoichiometry N", "setting": "[2]", "result": 3}]}
{"substance": "P74-26 tail tube protein (TTP), gp93, recombinant wild type (natural protein)", "values": [{"measurement": "mass fraction of the hexamer peak", "setting": "[3]", "result": 6, "unit": "%"}, {"measurement": "stoichiometry N", "setting": "[3]", "result": 6}, {"measurement": "tube growth rate at 37 °C relative to 20 °C (x the 20°C rate)", "setting": "[4]", "result": 68}, {"measurement": "tube growth rate at 50 °C relative to 20 °C (x the 20°C rate)", "setting": "[4]", "result": 3520}]}
